# Source: EP4782541A1 (Nanjing Probio Biotech Co., Ltd., dated 2026)
# Biological target: T1, human CD3 (on Jurkat cells) (human, UniProt P07766 23-207; P09693 23-182; P04234 22-171)
# T1 construct: whole, on cells
# Test: flow cytometry on Jurkat cells expressing human CD3
# T1 sequence (P07766 23-207, chain 1 of 3): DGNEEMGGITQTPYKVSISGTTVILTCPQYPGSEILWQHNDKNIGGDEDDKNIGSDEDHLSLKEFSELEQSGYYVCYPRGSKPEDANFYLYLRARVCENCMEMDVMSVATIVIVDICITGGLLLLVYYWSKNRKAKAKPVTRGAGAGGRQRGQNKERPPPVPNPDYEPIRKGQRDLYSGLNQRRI
# T1 sequence (P09693 23-182, chain 2 of 3): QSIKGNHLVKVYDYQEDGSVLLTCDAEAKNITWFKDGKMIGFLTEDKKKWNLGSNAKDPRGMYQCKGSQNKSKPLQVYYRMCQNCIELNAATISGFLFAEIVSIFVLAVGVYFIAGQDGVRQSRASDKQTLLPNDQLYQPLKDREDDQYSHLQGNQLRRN
# T1 sequence (P04234 22-171, chain 3 of 3): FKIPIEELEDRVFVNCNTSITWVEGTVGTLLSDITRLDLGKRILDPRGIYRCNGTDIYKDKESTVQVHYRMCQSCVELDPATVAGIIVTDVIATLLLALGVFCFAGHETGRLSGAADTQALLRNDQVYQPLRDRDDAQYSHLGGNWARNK
row,Binder,EC50 [nM]
1,"BsAb-17 (bispecific antibody, human IgG1, lambda) EVQLVESGGGLVQPGGSLRLSCAASGRSFSSFQMGWFRQAPGKEREFVAASGWSGGPTYYWDSVIGRFTISTDNSKNTLYLQMNSLRAEDTAVYYCYEDRVLSGRHVRYWGQGTLVTVSSDKTHTCPPCPAPESTRGPSVFLFPPKPKDTLMISRTPEVTCVVVDVSHEDPEVKFNWYVDGVEVHNAKTKPREEQYNSTYRVVSVLTVLHQDWLNGKEYKCKVSNKALPAPIEKTISKAKGQPREPQVCTLPPSRDELTKNQVSLSCAVKGFYPSDIAVEWESNGQPENNYKTTPPVLDSDGSFFLVSKLTVDKSRWQQGNVFSCSVMHEALHNHYTQKSLSLSPGK heavy: EVQLVESGGGLVQPGGSLRLSCAASGRSFSSFQMGWFRQAPGKEREFVAASGWSGGPTYYWDSVIGRFTISTDNSKNTLYLQMNSLRAEDTAVYYCYEDRVLSGRHVRYWGQGTLVTVSSGGGGSGGGGSGGGGSEVQLVESGGGLVQPGRSLRLSCAASGFTFNTYAMNWVRQAPGKGLEWVARIRSKYNNYATYYADSVKDRFTISRDDSKSIAYLQMNSLKTEDTAVYYCVRHGNFGNSYVSWFAYWGQGTLVTVSSASTKGPSVFPLAPSSKSTSGGTAALGCLVKDYFPEPVTVSWNSGALTSGVHTFPAVLQSSGLYSLSSVVTVPSSSLGTQTYICNVNHKPSNTKVDKKVEPKSCDKTHTCPPCPAPESTRGPSVFLFPPKPKDTLMISRTPEVTCVVVDVSHEDPEVKFNWYVDGVEVHNAKTKPREEQYNSTYRVVSVLTVLHQDWLNGKEYKCKVSNKALPAPIEKTISKAKGQPREPQVYTLPPCRDELTKNQVSLWCLVKGFYPSDIAVEWESNGQPENNYKTTPPVLDSDGSFFLYSKLTVDKSRWQQGNVFSCSVMHEALHNHYTQKSLSLSPGK light: QTVVTQEPSLTVSPGGTVTLTCRSSTGAVTTSNYANWVQQKPGQAPRGLIGGTNKRAPGVPARFSGSLLGGKAALTLSGVQPEDEAEYFCALWYSNLWVFGGGTKLTVLGQPKAAPSVTLFPPSSEELQANKATLVCLISDFYPGAVTVAWKADSSPVKAGVETTTPSKQSNNKYAASSYLSLTPEQWKSHRSYSCQVTHEGSTVEKTVAPTECS",4.02
2,"BsAb-16 (bispecific antibody, human IgG1, lambda) EVQLVESGGGLVQPGGSLRLSCAASGRSFSSFQMGWFRQAPGKEREFVAASGWSGGPTYYWDSVIGRFTISTDNSKNTLYLQMNSLRAEDTAVYYCYEDRVLSGRHVRYWGQGTLVTVSSGGGGSGGGGSGGGGSEVQLVESGGGLVQPGGSLRLSCAASGRSFSSFQMGWFRQAPGKEREFVAASGWSGGPTYYWDSVIGRFTISTDNSKNTLYLQMNSLRAEDTAVYYCYEDRVLSGRHVRYWGQGTLVTVSSDKTHTCPPCPAPESTRGPSVFLFPPKPKDTLMISRTPEVTCVVVDVSHEDPEVKFNWYVDGVEVHNAKTKPREEQYNSTYRVVSVLTVLHQDWLNGKEYKCKVSNKALPAPIEKTISKAKGQPREPQVCTLPPSRDELTKNQVSLSCAVKGFYPSDIAVEWESNGQPENNYKTTPPVLDSDGSFFLVSKLTVDKSRWQQGNVFSCSVMHEALHNHYTQKSLSLSPGK heavy: EVQLVESGGGLVQPGRSLRLSCAASGFTFNTYAMNWVRQAPGKGLEWVARIRSKYNNYATYYADSVKDRFTISRDDSKSIAYLQMNSLKTEDTAVYYCVRHGNFGNSYVSWFAYWGQGTLVTVSSASTKGPSVFPLAPSSKSTSGGTAALGCLVKDYFPEPVTVSWNSGALTSGVHTFPAVLQSSGLYSLSSVVTVPSSSLGTQTYICNVNHKPSNTKVDKKVEPKSCDKTHTCPPCPAPESTRGPSVFLFPPKPKDTLMISRTPEVTCVVVDVSHEDPEVKFNWYVDGVEVHNAKTKPREEQYNSTYRVVSVLTVLHQDWLNGKEYKCKVSNKALPAPIEKTISKAKGQPREPQVYTLPPCRDELTKNQVSLWCLVKGFYPSDIAVEWESNGQPENNYKTTPPVLDSDGSFFLYSKLTVDKSRWQQGNVFSCSVMHEALHNHYTQKSLSLSPGK light: QTVVTQEPSLTVSPGGTVTLTCRSSTGAVTTSNYANWVQQKPGQAPRGLIGGTNKRAPGVPARFSGSLLGGKAALTLSGVQPEDEAEYFCALWYSNLWVFGGGTKLTVLGQPKAAPSVTLFPPSSEELQANKATLVCLISDFYPGAVTVAWKADSSPVKAGVETTTPSKQSNNKYAASSYLSLTPEQWKSHRSYSCQVTHEGSTVEKTVAPTECS",0.469
3,"BsAb-3 (bispecific antibody, human IgG1, lambda, also called BsAb-03) QVQLVESGGGVVQPGGSLRLSCAASGFVLRVNTVSWYRQAPGKQRELVALITSESNEYYDDSVKGRFTISRDNAKNTIYLHMNSLKPEDTGVYFCNFITTWGQGTQVTVSSDKTHTCPPCPAPESTRGPSVFLFPPKPKDTLMISRTPEVTCVVVDVSHEDPEVKFNWYVDGVEVHNAKTKPREEQYNSTYRVVSVLTVLHQDWLNGKEYKCKVSNKALPAPIEKTISKAKGQPREPQVCTLPPSRDELTKNQVSLSCAVKGFYPSDIAVEWESNGQPENNYKTTPPVLDSDGSFFLVSKLTVDKSRWQQGNVFSCSVMHEALHNHYTQKSLSLSPGK heavy: EVQLVESGGGLVQPGRSLRLSCAASGFTFNTYAMNWVRQAPGKGLEWVARIRSKYNNYATYYADSVKDRFTISRDDSKSIAYLQMNSLKTEDTAVYYCVRHGNFGNSYVSWFAYWGQGTLVTVSSASTKGPSVFPLAPSSKSTSGGTAALGCLVKDYFPEPVTVSWNSGALTSGVHTFPAVLQSSGLYSLSSVVTVPSSSLGTQTYICNVNHKPSNTKVDKKVEPKSCDKTHTCPPCPAPESTRGPSVFLFPPKPKDTLMISRTPEVTCVVVDVSHEDPEVKFNWYVDGVEVHNAKTKPREEQYNSTYRVVSVLTVLHQDWLNGKEYKCKVSNKALPAPIEKTISKAKGQPREPQVYTLPPCRDELTKNQVSLWCLVKGFYPSDIAVEWESNGQPENNYKTTPPVLDSDGSFFLYSKLTVDKSRWQQGNVFSCSVMHEALHNHYTQKSLSLSPGK light: QTVVTQEPSLTVSPGGTVTLTCRSSTGAVTTSNYANWVQQKPGQAPRGLIGGTNKRAPGVPARFSGSLLGGKAALTLSGVQPEDEAEYFCALWYSNLWVFGGGTKLTVLGQPKAAPSVTLFPPSSEELQANKATLVCLISDFYPGAVTVAWKADSSPVKAGVETTTPSKQSNNKYAASSYLSLTPEQWKSHRSYSCQVTHEGSTVEKTVAPTECS",6.66
4,"BsAb-2 (bispecific antibody, human IgG1, lambda, also called BsAb-02) EVQLVESGGGLVQPGGSLRLSCAASYFISRFYAVGWYRQAPGKQRELVARISSGGWTYYADSVKGRFTISIDNSKNTLYLQMNSLRAEDTAVYYCNARNLWGQGTLVTVSSDKTHTCPPCPAPESTRGPSVFLFPPKPKDTLMISRTPEVTCVVVDVSHEDPEVKFNWYVDGVEVHNAKTKPREEQYNSTYRVVSVLTVLHQDWLNGKEYKCKVSNKALPAPIEKTISKAKGQPREPQVCTLPPSRDELTKNQVSLSCAVKGFYPSDIAVEWESNGQPENNYKTTPPVLDSDGSFFLVSKLTVDKSRWQQGNVFSCSVMHEALHNHYTQKSLSLSPGK heavy: EVQLVESGGGLVQPGRSLRLSCAASGFTFNTYAMNWVRQAPGKGLEWVARIRSKYNNYATYYADSVKDRFTISRDDSKSIAYLQMNSLKTEDTAVYYCVRHGNFGNSYVSWFAYWGQGTLVTVSSASTKGPSVFPLAPSSKSTSGGTAALGCLVKDYFPEPVTVSWNSGALTSGVHTFPAVLQSSGLYSLSSVVTVPSSSLGTQTYICNVNHKPSNTKVDKKVEPKSCDKTHTCPPCPAPESTRGPSVFLFPPKPKDTLMISRTPEVTCVVVDVSHEDPEVKFNWYVDGVEVHNAKTKPREEQYNSTYRVVSVLTVLHQDWLNGKEYKCKVSNKALPAPIEKTISKAKGQPREPQVYTLPPCRDELTKNQVSLWCLVKGFYPSDIAVEWESNGQPENNYKTTPPVLDSDGSFFLYSKLTVDKSRWQQGNVFSCSVMHEALHNHYTQKSLSLSPGK light: QTVVTQEPSLTVSPGGTVTLTCRSSTGAVTTSNYANWVQQKPGQAPRGLIGGTNKRAPGVPARFSGSLLGGKAALTLSGVQPEDEAEYFCALWYSNLWVFGGGTKLTVLGQPKAAPSVTLFPPSSEELQANKATLVCLISDFYPGAVTVAWKADSSPVKAGVETTTPSKQSNNKYAASSYLSLTPEQWKSHRSYSCQVTHEGSTVEKTVAPTECS",0.329
5,"BsAb-10 (bispecific antibody, human IgG1, lambda) EVQLVESGGGLVQPGGSLRLSCAASYFISRFYAVGWYRQAPGKQRELVARISSGGWTYYADSVKGRFTISIDNSKNTLYLQMNSLRAEDTAVYYCNARNLWGQGTLVTVSSDKTHTCPPCPAPESTRGPSVFLFPPKPKDTLMISRTPEVTCVVVDVSHEDPEVKFNWYVDGVEVHNAKTKPREEQYNSTYRVVSVLTVLHQDWLNGKEYKCKVSNKALPAPIEKTISKAKGQPREPQVCTLPPSRDELTKNQVSLSCAVKGFYPSDIAVEWESNGQPENNYKTTPPVLDSDGSFFLVSKLTVDKSRWQQGNVFSCSVMHEALHNHYTQKSLSLSPGK heavy: EVQLVESGGGLVQPGGSLRLSCAASYFISRFYAVGWYRQAPGKQRELVARISSGGWTYYADSVKGRFTISIDNSKNTLYLQMNSLRAEDTAVYYCNARNLWGQGTLVTVSSGGGGSGGGGSGGGGSEVQLVESGGGLVQPGRSLRLSCAASGFTFNTYAMNWVRQAPGKGLEWVARIRSKYNNYATYYADSVKDRFTISRDDSKSIAYLQMNSLKTEDTAVYYCVRHGNFGNSYVSWFAYWGQGTLVTVSSASTKGPSVFPLAPSSKSTSGGTAALGCLVKDYFPEPVTVSWNSGALTSGVHTFPAVLQSSGLYSLSSVVTVPSSSLGTQTYICNVNHKPSNTKVDKKVEPKSCDKTHTCPPCPAPESTRGPSVFLFPPKPKDTLMISRTPEVTCVVVDVSHEDPEVKFNWYVDGVEVHNAKTKPREEQYNSTYRVVSVLTVLHQDWLNGKEYKCKVSNKALPAPIEKTISKAKGQPREPQVYTLPPCRDELTKNQVSLWCLVKGFYPSDIAVEWESNGQPENNYKTTPPVLDSDGSFFLYSKLTVDKSRWQQGNVFSCSVMHEALHNHYTQKSLSLSPGK light: QTVVTQEPSLTVSPGGTVTLTCRSSTGAVTTSNYANWVQQKPGQAPRGLIGGTNKRAPGVPARFSGSLLGGKAALTLSGVQPEDEAEYFCALWYSNLWVFGGGTKLTVLGQPKAAPSVTLFPPSSEELQANKATLVCLISDFYPGAVTVAWKADSSPVKAGVETTTPSKQSNNKYAASSYLSLTPEQWKSHRSYSCQVTHEGSTVEKTVAPTECS",2.84
